The values below come from publication PMC11446282.

This assay relates to PP2A-B55α. In words: Single alanine mutational scan, YFP-tagged interactors immunoprecipitated from HeLa cells, Western blot. It counts as binding, human. Conditions: single alanine mutant of YFP-tagged ZDS1. Background: In western blotting, separated proteins are transferred to a membrane and probed.

Residue numbers refer to the chain shown, from its start.

B1: ZDS1 G874: ZDS1, G874 to alanine (protein, UniProt P50111 1-915, looked up, variant G874A)
Protein ZDS1: MSNRDNESMLRTTSSDKAIASQRDKRKSEVLIAAQSLDNEIRSVKNLKRLSIGSMDLLIDPELDIKFGGESSGRRSWSGTTSSSASMPSDTTTVNNTRYSDPTPLENLHGRGNSGIESSNKTKQGNYLGIKKGVHSPSRKLNANVLKKNLLWVPANQHPNVKPDNFLELVQDTLQNIQLSDNGEDNDGNSNENNDIEDNGEDKESQSYENKENNTINLNRGLSRHGNASLIRRPSTLRRSYTEFDDNEDDDNKGDSASETVNKVEERISKIKERPVSLRDITEELTKISNSAGLTDNDAITLARTLSMAGSYSDKKDQPQPEGHYDEGDIGFSTSQANTLDDGEFASNMPINNTMTWPERSSLRRSRFNTYRIRSQEQEKEVEQSVDEMKNDDEERLKLTKNTIKVEIDPHKSPFRQQDEDSENMSSPGSIGDFQDIYNHYRQSSGEWEQEMGIEKEAEEVPVKVRNDTVEQDLELREGTTDMVKPSATDDNKETKRHRRRNGWTWLNNKMSREDDNEENQGDDENEENVDSQRMELDNSKKHYISLFNGGEKTEVSNKEEMNNSSTSTATSQTRQKIEKTFANLFRRKPHHKHDASSSPSSSPSSSPSIPNNDAVHVRVRKSKKLGNKSGREPVEPIVLRNRPRPHRHHHSRHGSQKISVKTLKDSQPQQQIPLQPQLEGAIEIEKKEESDSESLPQLQPAVSVSSTKSNSRDREEEEAKKKNKKRSNTTEISNQQHSKHVQKENTDEQKAQLQAPAQEQVQTSVPVQASAPVQNSAPVQTSAPVEASAQTQAPAAPPLKHTSILPPRKLTFADVKKPDKPNSPVQFTDSAFGFPLPLLTVSTVIMFDHRLPINVERAIYRLSHLKLSNSKRALREQVLLSNFMYAYLNLVNHTLYMEQVAHDKEQQQQQQQQP
Take B1: the Experimental % binding worked out at 80%.

B2: ZDS1 E877: ZDS1, E877 to alanine (protein, UniProt P50111 1-915, looked up, variant E877A)
Protein ZDS1: B1 Protein ZDS1 with A874G, E877A
B2 had an Experimental % binding of 0%.

B3: ZDS1 L880: ZDS1, L880 to alanine (protein, UniProt P50111 1-915, looked up, variant L880A)
Protein ZDS1: B1 Protein ZDS1 with A874G, L880A
On to B3, for which the Experimental % binding amounted to 0%.

B4: ZDS1 S882: ZDS1, S882 to alanine (protein, UniProt P50111 1-915, looked up, variant S882A)
Protein ZDS1: B1 Protein ZDS1 with A874G, S882A
The molecule B4 returned an Experimental % binding of 98%.

B5: ZDS1 R876: ZDS1, R876 to alanine (protein, UniProt P50111 1-915, looked up, variant R876A)
Protein ZDS1: B1 Protein ZDS1 with A874G, R876A
Molecule B5 gave an Experimental % binding of 0%.

B6: ZDS1 Y861: ZDS1, Y861 to alanine (protein, UniProt P50111 1-915, looked up, variant Y861A)
Protein ZDS1: B1 Protein ZDS1 with Y861A, A874G
B6: the Experimental % binding was determined as 42%.

B7: ZDS1 R858: ZDS1, R858 to alanine (protein, UniProt P50111 1-915, looked up, variant R858A)
Protein ZDS1: B1 Protein ZDS1 with R858A, A874G
B7 came in with an Experimental % binding of 75%.

B8: ZDS1 Q878: ZDS1, Q878 to alanine (protein, UniProt P50111 1-915, looked up, variant Q878A)
Protein ZDS1: B1 Protein ZDS1 with A874G, Q878A
Molecule B8 registered an Experimental % binding of 13%.

B9: ZDS1 I860: ZDS1, I860 to alanine (protein, UniProt P50111 1-915, looked up, variant I860A)
Protein ZDS1: B1 Protein ZDS1 with I860A, A874G
Molecule B9 displayed an Experimental % binding of 60%.

B10: ZDS1 V879: ZDS1, V879 to alanine (protein, UniProt P50111 1-915, looked up, variant V879A)
Protein ZDS1: B1 Protein ZDS1 with A874G, V879A
For the molecule B10, the Experimental % binding was found to be 2%.

B11: ZDS1 L875: ZDS1, L875 to alanine (protein, UniProt P50111 1-915, looked up, variant L875A)
Protein ZDS1: B1 Protein ZDS1 with A874G, L875A
B11 returned an Experimental % binding of 0%.

B12: ZDS1 L881: ZDS1, L881 to alanine (protein, UniProt P50111 1-915, looked up, variant L881A)
Protein ZDS1: B1 Protein ZDS1 with A874G, L881A
As for B12, the Experimental % binding came to 11%.
